Source: patent US12295987B2, “Method of using a GIP/GLP1 co-agonist for diabetes” (Eli Lilly and Company, priority 2018, dated 2025)
Numbered stars: 1 amine (or outer) side, 2 acyl side, 3 side chain; on linkers, the order of the positions; unused ones are H or OH. Square brackets hold non-standard residues; d marks the D form. Side chains are listed from the residue outwards. Ends that are not written are not given here. * marks the point of attachment. C20 diacid = O=C(O)CCCCCCCCCCCCCCCCCCC(=O)*; γGlu = O=C(O)[C@H](CCC(=O)[*:2])N[*:1]; αMeL = CC(C)C[C@](C)(N)C(=O)O; αMeK = C[C@](N)(CCCCN)C(=O)O; AEEA = NCCOCCOCC(=O)O; Aib = CC(C)(N)C(=O)O

biological target: T1, human gastric inhibitory peptide receptor (hGIPR) (Homo sapiens, UniProt P48546); assay: cAMP pharmacological functional assay in presence of 0.1% casein, hGIPR; type: cell-based; conditions: ratio of hGIPR to hGLP1R cAMP EC50 ratios
T1 construct: expressed in transfected cells; host or cells: HEK293
T1 sequence (P48546 22-466): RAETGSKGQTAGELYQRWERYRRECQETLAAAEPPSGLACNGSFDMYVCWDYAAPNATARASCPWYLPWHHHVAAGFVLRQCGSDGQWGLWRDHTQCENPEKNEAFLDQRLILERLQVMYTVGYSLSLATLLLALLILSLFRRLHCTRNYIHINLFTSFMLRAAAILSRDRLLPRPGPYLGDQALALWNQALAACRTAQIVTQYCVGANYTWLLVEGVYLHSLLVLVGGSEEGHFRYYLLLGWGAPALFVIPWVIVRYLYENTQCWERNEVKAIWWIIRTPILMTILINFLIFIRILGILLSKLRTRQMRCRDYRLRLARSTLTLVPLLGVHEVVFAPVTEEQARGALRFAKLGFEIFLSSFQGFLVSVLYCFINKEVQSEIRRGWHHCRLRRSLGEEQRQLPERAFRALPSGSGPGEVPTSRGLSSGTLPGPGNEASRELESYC

Substance	[hGIPR/hGLP1R] EC50 Ratio
Y-Aib-EGTFTSDYSI-αMeL-LDEK((2-[2-(2-Amino-ethoxy)-ethoxy]-acetyl)2-(γGlu)-CO—(CH2)18—CO2H)AQ-αMeK-AFIEYLLEGGPSSGAPPPS-NH2 (Y[Aib]EGTFTSDYSI[αMeL]LDEK([AEEA-AEEA-γGlu-C20 diacid])AQ[αMeK]AFIEYLLEGGPSSGAPPPS-NH2; N-terminus assumed; SMILES CC[C@H](C)[C@H](NC(=O)[C@H](Cc1ccccc1)NC(=O)[C@H](C)NC(=O)[C@](C)(CCCCN)NC(=O)[C@H](CCC(N)=O)NC(=O)[C@H](C)NC(=O)[C@H](CCCCNC(=O)COCCOCCNC(=O)COCCOCCNC(=O)CC[C@H](NC(=O)CCCCCCCCCCCCCCCCCCC(=O)O)C(=O)O)NC(=O)[C@H](CCC(=O)O)NC(=O)[C@H](CC(=O)O)NC(=O)[C@H](CC(C)C)NC(=O)[C@](C)(CC(C)C)NC(=O)[C@@H](NC(=O)[C@H](CO)NC(=O)[C@H](Cc1ccc(O)cc1)NC(=O)[C@H](CC(=O)O)NC(=O)[C@H](CO)NC(=O)[C@@H](NC(=O)[C@H](Cc1ccccc1)NC(=O)[C@@H](NC(=O)CNC(=O)[C@H](CCC(=O)O)NC(=O)C(C)(C)NC(=O)[C@@H](N)Cc1ccc(O)cc1)[C@@H](C)O)[C@@H](C)O)[C@@H](C)CC)C(=O)N[C@@H](CCC(=O)O)C(=O)N[C@@H](Cc1ccc(O)cc1)C(=O)N[C@@H](CC(C)C)C(=O)N[C@@H](CC(C)C)C(=O)N[C@@H](CCC(=O)O)C(=O)NCC(=O)NCC(=O)N1CCC[C@H]1C(=O)N[C@@H](CO)C(=O)N[C@@H](CO)C(=O)NCC(=O)N[C@@H](C)C(=O)N1CCC[C@H]1C(=O)N1CCC[C@H]1C(=O)N1CCC[C@H]1C(=O)N[C@@H](CO)C(N)=O) [Peptide 21]	4.85
Y-Aib-EGTFTSDYSI-αMeL-LDKIAQ-Aib-AFIEYLIK((2-[2-(2-Amino-ethoxy)-ethoxy]-acetyl)2-(γGlu)-CO—(CH2)18—CO2H)GG-NH2 (YXEGTFTSDYSIXLDKIAQXAFIEYLIKGG; Aib, αMeL; K lipidated C20 diacid-γGlu-AEEA2; C-terminal amide; (2)..(2) Xaa at position 2 is Aib; (13)..(13) Xaa at position 13 is alpha-methyl-Leu; (20)..(20) Xaa at position 20 is Aib; MOD_RES (28)..(28) Lys at position 28 is chemically modified by conjugation of the epsilon-amino group of the Lys side chain with (2-[2-(2-amino-ethoxy)-ethoxy]-acetyl)2-(gamma-Glu)-CO-(CH2)18- CO2H; MOD_RES (30)..(30) Gly at position 30 is amidated) [Peptide 97]	3.56
Y-Aib-EGTFTSDYSI-αMeL-LDKK((2-[2-(2-Amino-ethoxy)-ethoxy]-acetyl)2-(γGlu)-CO—(CH2)18—CO2H)AQ-Aib-AFIEYLIEGG-NH2 (YXEGTFTSDYSIXLDKKAQXAFIEYLIEGG; Aib, αMeL; K lipidated C20 diacid-γGlu-AEEA2; C-terminal amide; (2)..(2) Xaa at position 2 is Aib; (13)..(13) Xaa at position 13 is alpha-methyl-Leu; MOD_RES (17)..(17) Lys at position 17 is chemically modified by conjugation of the epsilon-amino group of the Lys side chain with (2-[2-(2-amino-ethoxy)-ethoxy]-acetyl)2-(gamma-Glu)-CO-(CH2)18- CO2H; (20)..(20) Xaa at position 20 is Aib; MOD_RES (30)..(30) Gly at position 30 is amidated) [Peptide 62]	5.03
Y-Aib-EGTFTSDYSI-αMeL-LDKK((2-[2-(2-Amino-ethoxy)-ethoxy]-acetyl)2-(γGlu)-CO—(CH2)18—CO2H)AQ-Aib-AFIEYLIEGGPSSGAPPPS-NH2 (YXEGTFTSDYSIXLDKKAQXAFIEYLIEGGPSSGAPPPS; Aib, αMeL; lipidated K; C-terminal amide; (2)..(2) Xaa at position 2 is Aib; (13)..(13) Xaa at position 13 is alpha-methyl-Leu; MOD_RES (17)..(17) Lys at position 17 is chemically modified by conjugation of the epsilon-amino group of the Lys side chain with (2-[2-(2-amino-ethoxy)-ethoxy]-acetyl)2-(gamma-Glu)-CO-(CH2)18- CO2H; (20)..(20) Xaa at position 20 is Aib; MOD_RES (39)..(39) Ser at position 39 is amidated) [Peptide 20]	4.87
Y-Aib-EGTFTSDYSI-αMeL-LDSK((2-[2-(2-Amino-ethoxy)-ethoxy]-acetyl)2-(γGlu)-CO—(CH2)18—CO2H)AQ-Aib-AFIEYLIEGG-NH2 (YXEGTFTSDYSIXLDSKAQXAFIEYLIEGG; Aib, αMeL; K lipidated C20 diacid-γGlu-AEEA2; C-terminal amide; (2)..(2) Xaa at position 2 is Aib; (13)..(13) Xaa at position 13 is alpha-methyl-Leu; MOD_RES (17)..(17) Lys at position 17 is chemically modified by conjugation of the epsilon-amino group of the Lys side chain with (2-[2-(2-amino-ethoxy)-ethoxy]-acetyl)2-(gamma-Glu)-CO-(CH2)18- CO2H; (20)..(20) Xaa at position 20 is Aib; MOD_RES (30)..(30) Gly at position 30 is amidated) [Peptide 64]	3.66
Y-Aib-EGTFTSDYSI-αMeL-LDSK((2-[2-(2-Amino-ethoxy)-ethoxy]-acetyl)2-(γGlu)-CO—(CH2)18—CO2H)AQ-Aib-AFIEYLIEGGPSSGAPPPS-NH2 (YXEGTFTSDYSIXLDSKAQXAFIEYLIEGGPSSGAPPPS; Aib, αMeL, lipidated Lys, C-terminal amide; (2)..(2) Xaa at position 2 is Aib; (13)..(13) Xaa at position 13 is alpha-methyl-Leu; MOD_RES (17)..(17) Lys at position 17 is chemically modified by conjugation of the epsilon-amino group of the Lys side chain with (2-[2-(2-amino-ethoxy)-ethoxy]-acetyl)2-(gamma-Glu)-CO-(CH2)18- CO2H; (20)..(20) Xaa at position 20 is Aib; MOD_RES (39)..(39) Ser at position 39 is amidated) [Peptide 52]	2.72
Y-Aib-EGTFTSDYSI-αMeL-LDTK((2-[2-(2-Amino-ethoxy)-ethoxy]-acetyl)2-(γGlu)-CO—(CH2)18—CO2H)AQ-Aib-AFIEYLIEGG-NH2 (YXEGTFTSDYSIXLDTKAQXAFIEYLIEGG; Aib, αMeL; K lipidated C20 diacid-γGlu-AEEA2; C-terminal amide; (2)..(2) Xaa at position 2 is Aib; (13)..(13) Xaa at position 13 is alpha-methyl-Leu; MOD_RES (17)..(17) Lys at position 17 is chemically modified by conjugation of the epsilon-amino group of the Lys side chain with (2-[2-(2-amino-ethoxy)-ethoxy]-acetyl)2-(gamma-Glu)-CO-(CH2)18- CO2H; (20)..(20) Xaa at position 20 is Aib; MOD_RES (30)..(30) Gly at position 30 is amidated) [Peptide 65]	4.46
Y-Aib-EGTFTSDYSIK((2-[2-(2-Amino-ethoxy)-ethoxy]-acetyl)2-(γGlu)-CO—(CH2)18—CO2H)LDKIAQ-Aib-AFIEYLIEGGPSSGAPPPS-NH2 (Y[Aib]EGTFTSDYSIK([AEEA-AEEA-γGlu-C20 diacid])LDKIAQ[Aib]AFIEYLIEGGPSSGAPPPS-NH2; N-terminus assumed; SMILES CC[C@H](C)[C@H](NC(=O)[C@H](CCCCN)NC(=O)[C@H](CC(=O)O)NC(=O)[C@H](CC(C)C)NC(=O)[C@H](CCCCNC(=O)COCCOCCNC(=O)COCCOCCNC(=O)CC[C@H](NC(=O)CCCCCCCCCCCCCCCCCCC(=O)O)C(=O)O)NC(=O)[C@@H](NC(=O)[C@H](CO)NC(=O)[C@H](Cc1ccc(O)cc1)NC(=O)[C@H](CC(=O)O)NC(=O)[C@H](CO)NC(=O)[C@@H](NC(=O)[C@H](Cc1ccccc1)NC(=O)[C@@H](NC(=O)CNC(=O)[C@H](CCC(=O)O)NC(=O)C(C)(C)NC(=O)[C@@H](N)Cc1ccc(O)cc1)[C@@H](C)O)[C@@H](C)O)[C@@H](C)CC)C(=O)N[C@@H](C)C(=O)N[C@@H](CCC(N)=O)C(=O)NC(C)(C)C(=O)N[C@@H](C)C(=O)N[C@@H](Cc1ccccc1)C(=O)N[C@H](C(=O)N[C@@H](CCC(=O)O)C(=O)N[C@@H](Cc1ccc(O)cc1)C(=O)N[C@@H](CC(C)C)C(=O)N[C@H](C(=O)N[C@@H](CCC(=O)O)C(=O)NCC(=O)NCC(=O)N1CCC[C@H]1C(=O)N[C@@H](CO)C(=O)N[C@@H](CO)C(=O)NCC(=O)N[C@@H](C)C(=O)N1CCC[C@H]1C(=O)N1CCC[C@H]1C(=O)N1CCC[C@H]1C(=O)N[C@@H](CO)C(N)=O)[C@@H](C)CC)[C@@H](C)CC) [Peptide 26]	2.46
